Target: human CD303 antigen (human) (UniProt Q8WTT0)
Assay: cell-based or functional assay

human CD303 antigen (human), sequence (Q8WTT0 whole entry): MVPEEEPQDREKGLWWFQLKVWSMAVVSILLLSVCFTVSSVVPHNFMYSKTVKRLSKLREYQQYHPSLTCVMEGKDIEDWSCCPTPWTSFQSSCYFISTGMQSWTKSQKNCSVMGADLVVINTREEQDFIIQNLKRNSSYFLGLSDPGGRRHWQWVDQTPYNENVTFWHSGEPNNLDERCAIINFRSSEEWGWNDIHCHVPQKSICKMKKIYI

B1: humanized anti-CD303 antibody BIIB059 (antibody, INN chains, looked up, V domains shown)
VH: DVQLVESGGGLVKPGGSLRLSCAASGFTFSTYTMSWVRQAPGKGLEWVATISPGDSFGYYYPDSVQGRFTISRDNAKNSLYLQMNSLRAEDTAVYYCTRDIYYNYGAWFAYWGQGTLVTVSS
VL: DIQLTQSPSSLSASVGDRVTITCKASQSVDYDGDSYMNWYQQKPGKAPKLLIYAASTLESGVPSRFSGSGSGTDFTLTISSLQPEDFATYYCQQANEDPRTFGQGTKVEIK
Question: For B1, which EC50 (ng/mL), ADCC activity via CD16a is on record?
Answer: 1.68 ng/mL

Question: And the Emax (% lysis), ADCC activity via CD16a?
Answer: 29.3 % lysis

Reference: patent US20180066060A1
